{
  "source": "patent US12702697B2",
  "about": "“Compositions and methods for treatment of headache disorders and neuropathic pain” (Washington University, priority 2019, dated 2026)",
  "molecules": {"B1": {"name": "ld-IL2: Recombinant mouse IL2 (carrier-free; Biolegend), given as daily low-dose i.p. injection (protein, UniProt P04351 21-169, looked up)", "Interleukin-2": "APTSSSTSSSTAEAQQQQQQQQQQQQHLEQLLMDLQELLSRMENYRNLKLPRMLTFKFYLPKQATELKDLQCLEDELGPLRHVLDLTQSKSFQLEDAENFISNIRVTVVKLKGSDNTFECQFDDESATVVDFLRRWIAFCQSIISTSPQ"}},
  "key": {"[1]": {"tested_on": "NTG-induced skin hypersensitivity in mice", "test": "Mouse model of chronic migraine (repetitive NTG): hindpaw and facial von Frey thresholds, cheek acetone test", "format": "in vivo", "description": "Mouse model of chronic migraine and drug treatments: After measuring baseline nociceptive responses, mice received repetitive intraperitoneal (i.p.) injections of NTG (10 mg/kg in saline with 1% propylene glycol) or vehicle (saline with 1% propylene glycol in saline, 10 mL/kg) every 2 days for 4 or more times as described previously (Pradhan A A, et al. PAIN 2014; 155:269-74). Nocifensive behaviors were measured 2 days after each injection (before the next treatment). NTG (SDM27; Copperhead Chemical, Tamaqua, PA) was freshly diluted from the stock (10% in propylene glycol, aliquoted in airtight glass vials and stored at 4° C.) with saline for every injection. Recombinant mouse IL2 (carrier-free; Biolegend, San Diego, CA) was freshly diluted from the stock (1 mg/mL aliquots at […]) every day. Each mouse received daily i.p. injection of […] IL2 in […] saline. The control mice received daily i.p. injections of […] saline. In Treg depletion experiment, mice received 1 i.p. injection of antibodies against CD25 ([…], BP0012; BioXcell, West Lebanon, NH11) or control IgG (BP0088; BioXcell). The antibody binds to CD25 on Treg cell membrane and depletes Treg cells through Fcg receptor III-mediated antibody-dependent cellular cytotoxicity and antibody-dependent cellular phagocytosis (Setiady Y Y, et al, Eur J Immunol 2010; 40:780-6). Note that on the days that the mouse behaviors were tested, NTG, IL2 and/or antibodies were always injected after completing the behavioral tests.\n(§1) Responses to mechanical stimuli on the hindpaw. Mice were habituated in individual clear plexiglass boxes (11×11×15 cm) for 1 to 2 hours. A series of calibrated von Frey filaments was used to apply mechanical stimuli to the plantar surface of the hindpaws. The up-down paradigm was used to determine the 50% withdrawal threshold. The thresholds for both hindpaws were averaged to yield a single value for each mouse.\nCheek acetone test. The acute nocifensive response to acetone-evoked evaporative cooling on mouse cheek was measured as previously described (Constandil L, et al. J Pain 2012; 13:579-89). The day before testing, both cheeks were shaved (6.5×12 mm) under brief anesthesia (2% isoflurane in 100% oxygen). On the test day, mice were habituated in individual plexiglass cylinders (11-cm diameter, 15-cm height) situated in front of 3-way mirrors for 1 to 2 hours. Acetone ([…]) was applied to the shaved cheeks and immediately returned mice to the cylinders. Time spent wiping the treated area was recorded by a video camera and quantified offline. For individual mice, acetone was applied alternatingly to both cheeks at 10-minute intervals, and the duration of behavior was averaged from 4 applications.\nWithdrawal responses to facial mechanical stimuli. The hair on mouse forehead (above and between 2 eyes) was shaved the day before testing. On the test day, the experimenter gently held the mouse on the palm with minimal restraint and applied the calibrated von Frey filament perpendicularly to the shaved skin, causing the filament to bend for 5 seconds. A positive response was determined by the following criteria as previously described: mouse vigorously stroked its face with the forepaw, head withdrawal from the stimulus, or head shaking (Elliott M B et al., Headache 2012; 52:966-84). The up-down paradigm was used to determine the 50% withdrawal threshold. […]"}, "[2]": {"tested_on": "mTBI-induced facial mechanical hypersensitivity in mice", "test": "Mouse model of mild traumatic brain injury-induced post-traumatic headache (facial mechanical thresholds, low-dose NTG priming)", "format": "in vivo", "description": "Mouse model of mild traumatic brain injury-induced post-traumatic headache. Adult Swiss Webster mice (30-35 g) were subjected to mTBI using a modified closed head weight-drop method. 43, 58 Briefly, mice were anesthetized with 3% isoflurane for 90 seconds and were placed chest down on a foam sponge (4-cm thickness and 0.062-g/cm3 density) directly underneath a hollow cylindrical tube (1.5-cm inner diameter) placed approximately 1 cm vertically over the mouse's head. To induce mTBI, a 30-g weight (1.3-cm diameter and 3.4-cm height) was dropped through the tube from a height of 80 cm, striking the center point between the ears once. All mice regained righting reflex within 2 minutes. […] Sham mice were anesthetized with 3% isoflurane for 90 seconds but not subjected to the weight drop. Facial mechanical thresholds were measured before and at various time points after mTBI. Daily ldIL2 or saline were administered 1 or 7 days after the sham or mTBI procedure. To reveal mTBI-induced hyperalgesia priming, mice received daily i.p. injections of NTG (0.1 mg/kg, i.p.) for 4 to 6 days, starting at 35 days after mTBI. Facial mechanical thresholds were measured between day 35 and 43 days after mTBI. Note that on the days that the mouse behaviors were tested, NTG and/or IL2 were always injected after completing the behavioral tests.\n(§2) Withdrawal responses to facial mechanical stimuli. The hair on mouse forehead (above and between 2 eyes) was shaved the day before testing. On the test day, the experimenter gently held the mouse on the palm with minimal restraint and applied the calibrated von Frey filament perpendicularly to the shaved skin, causing the filament to bend for 5 seconds. A positive response was determined by the following criteria as previously described: mouse vigorously stroked its face with the forepaw, head withdrawal from the stimulus, or head shaking (Elliott M B et al., Headache 2012; 52:966-84). The up-down paradigm was used to determine the 50% withdrawal threshold."}, "[3]": {"tested_on": "sumatriptan-induced cutaneous hypersensitivity in mice", "test": "Mouse model of medication overuse headache (repeated sumatriptan)", "format": "in vivo", "description": "Mouse model of medication overuse headache. After measuring baseline nociceptive responses, mice received daily i.p. injections of sumatriptan succinate (0.6 mg/kg; Fresenius Kabi, Lake Zurich, IL44). Daily ld-IL2 or saline were administered after mice received 2 sumatriptan injections. Facial and hindpaw mechanical thresholds were measured every 2 days. Note that on the days that the mouse behaviors were tested, sumatriptan and/or IL2 were always injected after completing the behavioral tests.\nas §1, §2"}, "[4]": {"conditions": "human, in vivo; cited from earlier work"}, "[5]": {"conditions": "ld-IL2 pretreatment, female C57BL/6J"}, "[6]": {"conditions": "daily ld-IL2 starting 1 day after mTBI for 9 days, female Swiss Webster"}},
  "data": [
    {"molecule": "B1", "values": [
      {"measurement": "basal hindpaw mechanical sensitivity", "setting": "[1]; 5 or 15 days of ld-IL2 injections, male C57BL/6J", "result": "not altered"},
      {"measurement": "established persistent facial mechanical hypersensitivity resulting from repeated NTG injections", "setting": "[1]; after 7 to 9 days of IL2 injections, female Swiss Webster", "result": "completely reverse"},
      {"measurement": "behavioral sensitization by subsequent NTG administrations", "setting": "[1]; continuous ld-IL2, female C57BL/6J, day 7-11", "result": "prevented"},
      {"measurement": "baseline facial mechanical threshold", "setting": "[1]; daily ld-IL2, female Swiss Webster", "result": "not altered"},
      {"measurement": "daily ld-IL2 treatments to completely reverse NTG-induced facial hypersensitivity, first session", "setting": "[1]; day 4-10, male C57BL/6J", "result": 7},
      {"measurement": "slope of ld-IL2-induced reversal (change of threshold per day), first session", "setting": "[1]; day 5-11, male C57BL/6J", "result": "5.3±0.9"},
      {"measurement": "acute reduction of facial mechanical threshold 3 hours after NTG", "setting": "[1]; day 11, after 7 ld-IL2 injections, female C57BL/6J", "result": "did not cause an acute reduction"},
      {"measurement": "NTG injections needed after cessation of IL2 to lower the threshold to the NTG+saline level, first session", "setting": "[1]; day 11-13, male C57BL/6J", "result": 2, "unit": "NTG injections"},
      {"measurement": "ld-IL2 injections required to completely reverse NTG-induced mechanical hypersensitivity, second session", "setting": "[1]; day 19-22, male C57BL/6J", "result": 4, "unit": "injections"},
      {"measurement": "slope of ld-IL2-induced reversal (change of threshold per day), second session", "setting": "[1]; day 19-23, male C57BL/6J", "result": "10.3±1.3"},
      {"measurement": "NTG injections needed after cessation of the second ld-IL2 treatment to reduce the threshold to the NTG+saline level", "setting": "[1]; day 23-27, male C57BL/6J", "result": 3, "unit": "NTG injections"},
      {"measurement": "development of facial cold hypersensitivity", "setting": "[1]; delayed ld-IL2 started after 2 NTG injections, female Swiss Webster", "result": "blocked the development"},
      {"measurement": "ld-IL2 injections sufficient to completely reverse the effect of repeated NTG", "setting": "[1]; female C57BL/6J", "result": 3, "unit": "injections"},
      {"measurement": "NTG-induced hindpaw mechanical hypersensitivity", "setting": "[1]; ld-IL2 pretreatment starting 5 days before first NTG, male C57BL/6J", "result": "completely blocked"},
      {"measurement": "NTG-induced facial cold hypersensitivity", "setting": "[1]; [5]", "result": "prevented the development"},
      {"measurement": "basal responses to acetone-induced cooling", "setting": "[1]; [5]", "result": "did not change"},
      {"measurement": "days of ld-IL2 treatment after which NTG-induced mechanical hypersensitivity started to reverse", "setting": "[1]; ld-IL2 started after 2 NTG injections, female Swiss Webster", "result": 5, "unit": "days"},
      {"measurement": "effect of ld-IL2 on NTG-induced facial skin hypersensitivity in Treg-depleted mice", "setting": "[1]; mice given anti-CD25 antibody 3 days earlier, male C57BL/6J", "result": "completely abolished"},
      {"measurement": "persistent facial mechanical hypersensitivity to repeated low-dose NTG after mTBI", "setting": "[2]; 3 weeks after cessation of ld-IL2, male Swiss Webster", "result": "failed to establish"},
      {"measurement": "duration of protection from mTBI-induced hyperalgesia priming", "setting": "[2]; 9 days of ld-IL2 treatment, male and female mice", "result": "at least 30 days"},
      {"measurement": "facial mechanical threshold, % of the baseline value", "setting": "[2]; after 3 days of ld-IL2 (day 10), started post-mTBI day 7 (about 26%), male Swiss Webster", "result": 87, "unit": "%"},
      {"measurement": "facial mechanical sensitivity of sham mice", "setting": "[2]; daily ld-IL2, male Swiss Webster", "result": "did not change"},
      {"measurement": "hyperalgesia priming revealed by repeated low-dose NTG", "setting": "[2]; [6]", "result": "completely prevented"},
      {"measurement": "mTBI-induced acute facial mechanical hypersensitivity", "setting": "[2]; [6]", "result": "completely prevented"},
      {"measurement": "mTBI-induced facial skin hypersensitivity at the end of ld-IL2 treatment", "setting": "[2]; day 15, ld-IL2 day 7 onward for 9 days, male Swiss Webster", "result": "fully reversed"},
      {"measurement": "sumatriptan induced cutaneous hypersensitivity", "setting": "[3]; after 4 to 6 ld-IL2 injections (day 7-9)", "result": "significantly attenuated"},
      {"measurement": "sumatriptan induced cutaneous hypersensitivity", "setting": "[3]; after 8 days of IL2 treatment (day 11)", "result": "completely reversed"},
      {"measurement": "cutaneous hypersensitivity in response to subsequent sumatriptan injections", "setting": "[3]; continuous ld-IL2 (day 13)", "result": "neither male nor female mice developed cutaneous hypersensitivity"},
      {"measurement": "tolerability in patients", "setting": "[4]", "result": "well tolerated"}
    ]}
  ]
}
